Data set [1] concerns the target T1, chymase (recombinant, manufactured by SIGMA) (Homo sapiens, UniProt P23946).
T1 construct: purchased SIGMA
T1 sequence (P23946 22-247): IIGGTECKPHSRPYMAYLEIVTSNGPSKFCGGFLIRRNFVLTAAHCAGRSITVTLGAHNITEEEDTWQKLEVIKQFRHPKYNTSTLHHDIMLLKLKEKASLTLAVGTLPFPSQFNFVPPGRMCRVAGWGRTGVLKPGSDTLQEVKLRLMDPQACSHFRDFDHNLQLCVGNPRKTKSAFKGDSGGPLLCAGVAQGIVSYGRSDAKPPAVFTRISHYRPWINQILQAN
Nature of the data set: chymase enzyme activity inhibition, synthetic substrate Suc-Ala-Ala-Pro-Phe-MCA. It counts as biochemical. The note with it: Table 1; substrate Suc-Ala-Ala-Pro-Phe-MCA 100 μM, chymase 0.05 μg (16.7 nM), 37° C.; mean of 2 or 3 measurements. On the procedure:
A first method employs a synthetic substrate. A useful chymase substrate is Suc-Ala-Ala-Pro-Phe-MCA (4-methylcoumaryl-7-amide group) (manufactured by Peptide Institute, Inc.), which contains the 4-amino acid peptide “Ala-Ala-Pro-Phe” (SEQ ID NO: 41), a standard substrate for chymotrypsin-like proteases.
The assay is performed using a 96-well plate (F16 Black Maxisorp Fluoronunc, manufactured by Nunc), with a reaction mixture volume of 100 μL, in a buffer solution (solution C; see Example 2 below). First, each nucleic acid is prepared in solution C to obtain 50 μL solutions. After 10 μL of the 1 mM substrate prepared in solution C is added, the plate is set to the microplate reader SpectraMax190 (manufactured by Molecular Devices Corporation), and incubated at 37° C. for 5 minutes. Separately, 0.05 μg of chymase (recombinant, manufactured by SIGMA) is diluted in solution C, and 40 μL of this dilution is incubated at 37° C. for 5 minutes. The chymase solution is added to the mixture of the nucleic acid and substrate to initiate an enzyme reaction. The plate containing the reaction mixture is set to the microplate reader SpectraMax190 (manufactured by Molecular Devices Corporation), and examined for time-dependent changes in the fluorescence intensity at 37° C. for 5 minutes (excitation wavelength 380 nm, detection wavelength 460 nm). A linear approximation of the increase in the fluorescence of the AMC (7-amino-4-methylcoumarine) released from the substrate by chymase activity is generated, and its slope is taken as the initial reaction velocity. For control, samples are treated and analyzed in the same manner in two cases: use of a nucleic acid pool containing a random sequence of 30 or 40 nucleotides (negative control), and use of chymostatin, a known chymotrypsin-like serine protease inhibitor (positive control). Taking the initial reaction velocity without the nucleic acid and inhibitor as a 100% enzyme activity, the inhibitory rate for each test substance is calculated, and the inhibitor concentration required to cause a 50% inhibition of the enzyme activity (IC50) is determined.
Whether the nucleic acids shown by SEQ ID NO: 1-8 inhibit the enzyme activity of chymase was determined as described below. The chymase substrate used was Suc-Ala-Ala-Pro-Phe-MCA (manufactured by Peptide Institute, Inc.), which contains the 4-amino-acid peptide Ala-Ala-Pro-Phe, a standard substrate for chymotrypsin-like proteases. Here, Suc is a protecting succinyl group, and MCA is a 4-methylcoumaryl-7-amide group; upon cleavage of the C-terminal side of phenylalanine, AMC (7-amino-4-methylcoumarine) is released. By detecting the fluorescence of this AMC, the enzyme activity of chymase can be determined. The assay was performed using a 96-well plate (F16 Black Maxisorp Fluoronunc, manufactured by Nunc), with a reaction mixture volume of 100 μL, in solution C as a buffer solution. Here, the solution C is a mixed solution of 145 mM sodium chloride, 5.4 mM potassium chloride, 1.8 mM calcium chloride, 0.8 mM magnesium chloride, 20 mM Tris (pH 7.6), and 0.05% Tween20. First, nucleic acid was serially diluted in solution C to obtain 50 μL solutions. After 10 μL of the 1 mM substrate prepared in solution C was added thereto, the plate was set to the microplate reader SpectraMax190 (manufactured by Molecular Devices Corporation), and incubated at 37° C. for 5 minutes. […] The chymase solution was added to the mixture of the nucleic acid and substrate to initiate an enzyme reaction. The final chymase concentration in the reaction mixture was 16.7 nM, the final substrate concentration being 100 μM. The plate containing the reaction mixture was set to the microplate reader SpectraMax190 (manufactured by Molecular Devices Corporation), and examined for time-dependent changes in the fluorescence intensity at 37° C. for 5 minutes (or 30 minutes) (excitation wavelength 380 nm, detection wavelength 460 nm). […]

For data set [2], the target named is T2, chymase purified from human skin mast cell (native, Calbiochem) (Homo sapiens, UniProt P23946).
T2 construct: Here, the native is chymase purified from human skin mast cell; purchased Calbiochem; host or cells: human skin mast cell (tissue-derived)
T2 sequence (P23946 22-247): T1 sequence (P23946 22-247)
Briefly: chymase enzyme activity inhibition, native substrate angiotensin I (His-Leu fluorescence). It counts as biochemical. The note with it: angiotensin I as substrate, mean of 2 or 3 measurements. Put shortly:
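Native chymase (final 0.5 nM) was preincubated with serially diluted nucleic acid (0.0027–2 μM solutions) for 5 min at 37 °C, then reacted with angiotensin I (final 50 μM) in solution C for 90 min at 37 °C and stopped with TCA. Released His-Leu was derivatized with o-phthalaldehyde and read by fluorescence (ex 355/em 460 nm). IC50 calculated relative to a no-inhibitor reaction.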

This is an account of results in US11639503B2, “Anti-chymase aptamer and use for same” (RIBOMIC INC., priority 2017, dated 2023).

Oligonucleotides are written 5' to 3', each unit as a sugar letter and its base; * is a phosphorothioate linkage, no mark a phosphodiester; rarer units and linkages stand in square brackets, end groups in braces. Plain capitals give the bases only. r = 2'-OH (RNA); f = 2'-fluoro

B1: 2 (nucleic acid)
chain: rGrGrGrArGfCrArGrGrArGrArGrArGrGfUfCrArGrAfUrGrAfUfCrGrGrAfCrAfUrArAfCrAfUfUrGfUfUrGrGrGrGfUrGfUfCrArArGrGfCfCfUrAfUrGfCrGfUrGfCfUrArGfUrGfUrGrA
modifications: aptamer
For B1, the IC50 (in general, the concentration that gives 50% inhibition) in data set [1] is 31 nM; in data set [2] (Table 3, >1 = no inhibitory activity up to 1 μM) it was 10 nM; in data set [2] (Table 4) it was 10 nM; in data set [2] (Table 6), 10 nM.
